# Source: article PMC9496542, “The Ni(II)-Binding Activity of the Intrinsically Disordered Region of Human NDRG1, a Protein Involved in Cancer Development” (Biomolecules, 2022)
# Where “and” joins values, the source holds several entries; their conditions need not be identical. Identical values can stand only once.
# How the values were obtained:
# [1] = target: the molecule itself; assay: SEC-MALS; SEC-MALS-QELS; hNDRG1 300 uL at 140 uM on Superdex 200 10/300 GL; 20 mM HEPES pH 7.5, 150 mM NaCl, 1 mM TCEP; room temperature, 0.5 mL/min; without or with Ni(II); SEC also run with 10 mM DTT; monomer, dimer and tetramer in equilibrium
# [2] = target: the molecule itself; assay: SDS-PAGE under nondenaturing conditions with Western blot; HeLa cells untreated or treated with 1 mM NiSO4 for 24 h; lysed under nondenaturing conditions; lysates in native sample buffer; blot with an antibody against the N-terminal region of NDRG1
# [3] = target: the molecule itself; assay: SDS-PAGE under nondenaturing conditions with Western blot; A549 cells untreated or treated with 1 mM NiSO4 for two days; total lysates and nuclear extracts; Western blot with anti-NDRG1
protein,measurement,setting,value
"full-length human NDRG1 (N-terminal Strep-tagged, recombinant) (natural protein, No cleavage of the tag is described for the full-length protein; also called hNDRG1; N-myc downstream-regulated gene 1 protein; source: E. coli BL21-CodonPlus (DE3) RiL, purified (StrepTrap HP, Superdex 200)) not shown",stoichiometry N,[1],4 and 2
"endogenous hNDRG1 in HeLa cells (natural protein, human NDRG1, endogenous protein of HeLa cells, detected with an antibody against the N-terminal region of NDRG1; source: endogenous, HeLa lysate) not shown",stoichiometry N,[2],2 and 4
"endogenous hNDRG1 in A549 cells (natural protein, human NDRG1, endogenous protein of the lung carcinoma-derived A549 cells, detected by Western blot with anti-NDRG1; source: endogenous, A549 lysate) not shown",stoichiometry N,[3],4
